Data on two molecules can be found in US20120301394A1 (published 2012).

The target in experiment [1] is T1, Recombinant human MMR (R&D systems) (human, UniProt P22897 19-1383).
T1 construct: Bought protein (R&D Systems #2534) coated on ELISA plates; also called hMMR; MRC1
T1 sequence: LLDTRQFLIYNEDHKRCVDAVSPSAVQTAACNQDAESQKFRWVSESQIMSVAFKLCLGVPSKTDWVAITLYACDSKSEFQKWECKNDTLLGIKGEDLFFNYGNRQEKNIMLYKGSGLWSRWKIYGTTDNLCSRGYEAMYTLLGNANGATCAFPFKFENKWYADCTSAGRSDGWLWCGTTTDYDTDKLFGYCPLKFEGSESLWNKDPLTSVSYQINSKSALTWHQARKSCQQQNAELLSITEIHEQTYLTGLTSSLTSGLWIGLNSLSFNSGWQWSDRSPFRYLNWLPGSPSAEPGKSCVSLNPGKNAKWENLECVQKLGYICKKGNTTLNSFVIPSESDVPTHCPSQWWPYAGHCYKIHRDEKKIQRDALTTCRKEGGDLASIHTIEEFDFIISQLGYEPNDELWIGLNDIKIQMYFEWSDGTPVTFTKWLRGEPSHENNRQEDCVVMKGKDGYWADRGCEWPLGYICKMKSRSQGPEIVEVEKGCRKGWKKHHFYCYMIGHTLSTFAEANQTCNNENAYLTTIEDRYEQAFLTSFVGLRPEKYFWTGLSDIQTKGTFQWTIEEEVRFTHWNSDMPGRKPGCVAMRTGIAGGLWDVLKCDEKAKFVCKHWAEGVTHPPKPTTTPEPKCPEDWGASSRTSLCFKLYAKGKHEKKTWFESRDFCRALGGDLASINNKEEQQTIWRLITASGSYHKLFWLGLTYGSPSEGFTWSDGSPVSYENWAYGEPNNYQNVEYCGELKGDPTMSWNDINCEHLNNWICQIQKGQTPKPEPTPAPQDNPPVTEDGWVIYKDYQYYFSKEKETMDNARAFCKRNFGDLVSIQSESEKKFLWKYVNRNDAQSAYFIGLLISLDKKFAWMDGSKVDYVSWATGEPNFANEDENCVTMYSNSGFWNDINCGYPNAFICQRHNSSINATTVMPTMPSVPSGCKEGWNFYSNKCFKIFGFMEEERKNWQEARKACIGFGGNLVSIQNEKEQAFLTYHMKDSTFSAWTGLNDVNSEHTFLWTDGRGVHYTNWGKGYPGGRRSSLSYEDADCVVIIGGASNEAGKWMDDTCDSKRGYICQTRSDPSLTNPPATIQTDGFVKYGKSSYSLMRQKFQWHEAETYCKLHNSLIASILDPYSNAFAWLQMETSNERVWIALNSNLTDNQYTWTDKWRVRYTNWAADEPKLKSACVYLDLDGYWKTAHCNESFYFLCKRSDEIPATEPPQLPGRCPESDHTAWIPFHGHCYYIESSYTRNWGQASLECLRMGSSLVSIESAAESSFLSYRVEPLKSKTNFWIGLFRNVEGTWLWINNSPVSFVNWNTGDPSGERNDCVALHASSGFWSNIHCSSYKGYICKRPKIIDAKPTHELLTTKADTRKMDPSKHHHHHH
Nature of the experiment: listed as a cross-reactive Nb; selection by PE-ELISA on human MMR (Example 26). (In general: ELISA stands for enzyme-linked immunosorbent assay.)

Experiment [2] addresses T2, Recombinant mouse MMR (R&D systems) (mouse, UniProt Q61830 20-1388).
T2 construct: Bought recombinant extracellular portion of mouse MMR with a C-terminal His tag; It was immobilized on the CM5 chip for SPR and coated on plates for PE-ELISA; The SPR methods say only 'MMR'; also called mMMR; recombinant MMR
T2 sequence: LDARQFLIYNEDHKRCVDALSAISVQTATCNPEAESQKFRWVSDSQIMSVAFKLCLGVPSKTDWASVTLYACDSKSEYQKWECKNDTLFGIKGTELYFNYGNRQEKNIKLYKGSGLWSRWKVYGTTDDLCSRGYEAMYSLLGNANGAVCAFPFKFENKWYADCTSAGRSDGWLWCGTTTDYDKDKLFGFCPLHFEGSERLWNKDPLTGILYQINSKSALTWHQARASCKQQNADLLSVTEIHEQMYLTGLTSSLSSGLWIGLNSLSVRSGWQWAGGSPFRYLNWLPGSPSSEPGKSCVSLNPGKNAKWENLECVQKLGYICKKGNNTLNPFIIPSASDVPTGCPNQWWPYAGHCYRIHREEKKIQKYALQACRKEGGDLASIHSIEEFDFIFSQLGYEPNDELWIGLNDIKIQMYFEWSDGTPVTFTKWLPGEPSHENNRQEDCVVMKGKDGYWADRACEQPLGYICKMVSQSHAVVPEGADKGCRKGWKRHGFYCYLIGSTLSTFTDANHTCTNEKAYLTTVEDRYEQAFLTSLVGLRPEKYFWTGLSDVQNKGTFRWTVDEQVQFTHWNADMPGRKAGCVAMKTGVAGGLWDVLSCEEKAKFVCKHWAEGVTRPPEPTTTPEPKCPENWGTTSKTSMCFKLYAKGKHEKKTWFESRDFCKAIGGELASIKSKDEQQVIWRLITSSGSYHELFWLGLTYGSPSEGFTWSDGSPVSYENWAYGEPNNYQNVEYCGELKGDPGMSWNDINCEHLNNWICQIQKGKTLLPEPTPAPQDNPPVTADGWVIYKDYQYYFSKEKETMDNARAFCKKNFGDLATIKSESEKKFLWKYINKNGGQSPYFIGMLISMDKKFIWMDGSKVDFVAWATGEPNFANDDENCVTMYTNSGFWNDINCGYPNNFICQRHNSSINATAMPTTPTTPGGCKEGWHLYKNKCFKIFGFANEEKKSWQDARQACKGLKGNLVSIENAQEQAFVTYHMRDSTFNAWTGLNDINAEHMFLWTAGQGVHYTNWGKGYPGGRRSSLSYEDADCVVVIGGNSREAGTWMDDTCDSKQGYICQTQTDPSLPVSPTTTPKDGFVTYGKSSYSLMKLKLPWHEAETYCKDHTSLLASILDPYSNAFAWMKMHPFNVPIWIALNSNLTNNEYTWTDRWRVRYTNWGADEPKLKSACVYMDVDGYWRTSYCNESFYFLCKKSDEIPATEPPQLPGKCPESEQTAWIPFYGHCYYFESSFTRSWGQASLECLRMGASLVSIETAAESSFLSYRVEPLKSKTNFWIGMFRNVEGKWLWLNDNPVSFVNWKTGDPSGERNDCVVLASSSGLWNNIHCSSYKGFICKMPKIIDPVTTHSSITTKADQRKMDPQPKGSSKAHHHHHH
In words: listed as a cross-reactive Nb; selection by PE-ELISA on mouse MMR (Example 26).

B1: NbhmMMRm7.67 (VHH)
VHH: QVQLQESGGGLVQAGGSLRLSCVDQGRTFSVNAMAWYRQAPGKQRELVASITSSGLDTQYAEGMKGRFTISKGNDKFSTYLQMNNLKPDDTAVYYCNAERWDNGMVYWGKGTQVTVSS
With B1, the binding result in experiment [1] is reported as “binds”.

B2: NbhmMMRm26.70 (VHH)
VHH: QVQLQESGGGLVQPGGSLRLSCTASGFPFSSAPMSWVRQAPGKELEWVSYIGYTGTITDYANSVKGRFTISRDNAKNRLYLQMNSLKPEDTAVYFCAQGYARLIADSDLVRGQGTQVTVSS
On to B2, for which the binding result in experiment [1] and in experiment [2] was “binds” each time.
